Results published in US20220298258A1 (Bristol-Myers Squibb, published 2022).

T1: fluorescently-conjugated human VISTA dextramer (a streptavidin dextramer loaded with monobiotinylated … (human, UniProt Q9H7M9 33-194, monobiotinylated (avi-tagged in Example 6); loaded on a fluorescently-conjugated streptavidin dextramer)
T1 construct: Multimeric reagent: many biotinylated VISTA molecules on a streptavidin dextramer; also called VISTA dextramers; dextramer loaded with recombinant human avi-tagged VISTA
T1 sequence (looked up): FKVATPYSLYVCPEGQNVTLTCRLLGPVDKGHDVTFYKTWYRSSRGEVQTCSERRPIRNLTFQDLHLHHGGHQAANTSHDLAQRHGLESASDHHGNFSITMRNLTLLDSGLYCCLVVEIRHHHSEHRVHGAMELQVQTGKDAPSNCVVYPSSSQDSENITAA


Key:
[1] = molecular target: Human PSGL-1 (P-Selectin Glycoprotein Ligand 1) on primary human T cells / PBMC lymphocytes (human) (UniProt Q14242); experiment: flow cytometry; inhibition of VISTA dextramer binding to activated human CD4+ T cells, pH 6.0
[2] = molecular target: T1, fluorescently-conjugated human VISTA …; experiment: as above
Experimental: The ability of soluble PSGL-1 to disrupt VISTA dextramer binding to T cells was assessed by incubating activated T cells with fluorescently-conjugated VISTA dextramers (a streptavidin dextramer loaded with a sub-optimal molar ratio of monobiotinylated recombinant human VISTA molecules) in Hanks's Balanced Salt Solution at pH 6.0 and in the presence of titrated concentrations of a control (i.e., non-VISTA or PSGL-1 specific) antibody (dots), recombinant human PSGL-1-Fc fusion protein (triangles), or recombinant human P-selectin (R&D Systems, diamonds). The recombinant human PSGL-1 Fc fusion molecule was obtained from R&D Systems Catalog No. 3345-PS, and comprises the PSGL-1 ECD sequence shown in SEQ ID NO: 18, comprising positions 42-295 of a human PSGL-1 sequence of accession number AA50061 coupled at its C-terminal to an IEGRMD linker sequence (SEQ ID NO: 19) followed by amino acids P100 to K330 of human IgG1. After incubation, the binding of the VISTA dextramer to the T cells was measured by flow cytometry. IC50 values were calculated via nonlinear regression in Prism software (GraphPad). The results, which are shown in FIG. 3 and Table 1, indicate that PSGL-1 and P-selectin inhibit binding of VISTA to the activated CD4+ T cells in a dose dependent manner at acidic pH.

| IC50 [1] [nM] | IC50 [2] [nM] | Molecule |
| --- | --- | --- |
| 101 |  | recombinant human P-selectin (R&D Systems) (from UniProt P16109 42-771) (receptor) |
|  | 20.5 | recombinant human PSGL-1-Fc fusion protein (R&D Systems Catalog No. 3345-PS) (Fc fusion, Bought reagent; also called hPSGL-1-Fc; humPSGL-1-Fc; not shown: human IgG1, amino acids P100 to K330) QATEYEYLDYDFLPETEPPEMLRNSTDTTPLTGPGTPESTTVEPAARRSTGLDAGGAVTELTTELANMGNLSTDSAAMEIQTTQPAATEAQTTPLAATEAQTTRLTATEAQTTPLAATEAQTTPPAATEAQTTQPTGLEAQTTAPAAMEAQTTAPAAMEAQTTPPAAMEAQTTQTTAMEAQTTAPEATEAQTTQPTATEAQTTPLAAMEALSTEPSATEALSMEPTTKRGLFIPFSVSSVTHKGIPMAASNLSVIEGRMD |
